Experiments:
[1] = target: recombinant soluble human CD4 (human, UniProt P01730); test: ELISA
[2] = target: recombinant soluble rhesus CD4 (Macaca mulatta (rhesus macaque), UniProt P16003); test: ELISA
recombinant soluble rhesus CD4, sequence (P16003 26-396): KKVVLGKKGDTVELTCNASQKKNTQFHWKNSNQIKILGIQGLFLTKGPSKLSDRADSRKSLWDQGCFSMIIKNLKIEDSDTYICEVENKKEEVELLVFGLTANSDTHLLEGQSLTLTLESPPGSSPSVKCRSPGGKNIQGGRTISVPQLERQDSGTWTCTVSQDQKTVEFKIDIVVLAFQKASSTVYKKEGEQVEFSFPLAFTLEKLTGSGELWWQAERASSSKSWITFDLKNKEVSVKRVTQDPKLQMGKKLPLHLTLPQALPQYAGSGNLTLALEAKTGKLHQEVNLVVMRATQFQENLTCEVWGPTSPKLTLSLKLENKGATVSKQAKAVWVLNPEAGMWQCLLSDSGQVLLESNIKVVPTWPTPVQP

B1: mAb 2D5 (anti-CD4 monoclonal antibody) (antibody, V domains shown)
VH: QVKLQQSGPELKKPGETVKISCKASGYTFTDYSMHWVKQAPGKGLKWLGRINTETGEAKYVDDFMGHLAFSLETSASTAYLQINNLKNEDTATYFCARYDGYSWDAMDYWGQGTSVIVSS
VL: DIMLTQSPASLTVSLGQRATMSCRASQSVSTSRYSYMHWYQEKAGQPPQLLIKYASNLESGVPARFSGSGSGTDFTLNIHPVEAEDTATYYCQHSWEIPYTFGGGTKLEIK
**Q.** Which results are given for B1?
**A.** binding result [1]: binds; binding result [2]: binds

From article PMC4562469 (Science translational medicine, 2014)
